# From PMC6885686, “RRM adjacent TARDBP mutations disrupt RNA binding and enhance TDP-43 proteinopathy”
# Target: TDP-43 RRM1-2 WT (UniProt Q13148 102-269)
# Assay: BLI; EMSA: 5 ug total lysate in RIPA with RNase inhibitor, 2 ug tRNA, 1 uM unlabelled (GU)x6 and 2.5 nM biotin-(GU)x6, 30 min room temperature, 6% native PAGE; BLI buffer not given in the material (protein purified in phosphate buffer pH 7.2)
# Conditions: protein: recombinant; tags: 6xHis-SUMO removed by TEV
# Chain of TDP-43 RRM1-2 WT (Q13148 102-269): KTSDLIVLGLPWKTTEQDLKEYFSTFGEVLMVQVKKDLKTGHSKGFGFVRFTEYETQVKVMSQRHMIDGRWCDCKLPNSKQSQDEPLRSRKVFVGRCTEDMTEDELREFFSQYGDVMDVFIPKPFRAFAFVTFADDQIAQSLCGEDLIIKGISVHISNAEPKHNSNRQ
binder,measurement,value
GUGUGAAUGAAU (ssRNA) [AUG-RNA],Kd,3.2 ± 0.9 nM
